In patent US20230357429A1 (JANUX THERAPEUTICS, published 2023):
Read-outs that look alike come from different tables or passages of the source. Where no end group is shown, it is not given here.

Assays:
[1] = biological target: T1, Human TROP2 ECD (31-274 AA), biotinylated (human, UniProt P09758 31-274, biotinylated (site not stated)); test: ELISA on immobilized TROP2
T1 construct: also called tumor-associated calcium signal transducer 2; Human TROP2-biotin
T1 sequence: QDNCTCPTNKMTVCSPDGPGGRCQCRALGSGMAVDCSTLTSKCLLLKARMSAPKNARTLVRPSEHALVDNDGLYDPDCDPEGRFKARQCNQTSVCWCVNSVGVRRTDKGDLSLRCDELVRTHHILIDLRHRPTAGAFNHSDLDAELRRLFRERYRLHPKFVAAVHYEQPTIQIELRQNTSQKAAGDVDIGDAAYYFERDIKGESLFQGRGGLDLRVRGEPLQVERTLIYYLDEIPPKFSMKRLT

[2] = biological target: T1, Human TROP2 ECD (31-274 AA), …; test: ELISA on immobilized TROP2; remark: listed apart in the source
[3] = biological target: T1, Human TROP2 ECD (31-274 AA), …; test: ELISA on immobilized TROP2; remark: listed apart in the source
[4] = biological target: T2, Human TROP2 Full length (human, UniProt P09758 31-323); test: cell-based or functional assay
T2 sequence: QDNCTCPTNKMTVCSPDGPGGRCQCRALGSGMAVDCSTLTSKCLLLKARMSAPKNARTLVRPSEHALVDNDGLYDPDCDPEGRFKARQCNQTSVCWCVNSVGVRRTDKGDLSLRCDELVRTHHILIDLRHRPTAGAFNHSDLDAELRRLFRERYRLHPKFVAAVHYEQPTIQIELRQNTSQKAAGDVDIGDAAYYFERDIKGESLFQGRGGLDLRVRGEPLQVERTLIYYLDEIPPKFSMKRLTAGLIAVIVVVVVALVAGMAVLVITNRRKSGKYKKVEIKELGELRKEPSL

[5] = biological target: T3, Cyno TROP2 Full length (cynomolgus monkey, UniProt P09758 31-323 (human entry)); test: cell-based or functional assay
T3 chain: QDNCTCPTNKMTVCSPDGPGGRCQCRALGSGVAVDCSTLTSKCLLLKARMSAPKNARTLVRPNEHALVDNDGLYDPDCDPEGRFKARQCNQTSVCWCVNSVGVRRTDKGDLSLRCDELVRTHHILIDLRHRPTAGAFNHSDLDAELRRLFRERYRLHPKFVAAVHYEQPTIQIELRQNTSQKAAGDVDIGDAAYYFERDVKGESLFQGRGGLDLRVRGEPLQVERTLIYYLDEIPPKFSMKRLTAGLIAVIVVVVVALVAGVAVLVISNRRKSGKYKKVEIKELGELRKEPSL

[6] = biological target: T1, Human TROP2 ECD (31-274 AA), …; test: ELISA on immobilized TROP2; remark: listed apart in the source
[7] = biological target: T1, Human TROP2 ECD (31-274 AA), …; test: ELISA on immobilized TROP2; remark: listed apart in the source
[8] = biological target: T1, Human TROP2 ECD (31-274 AA), …; test: ELISA on immobilized TROP2; remark: listed apart in the source
[9] = biological target: T4, TBD-1 wt; test: competition ELISA: peptide titrated and pre-incubated with a constant concentration of TBD-1, then added to plate-bound biotinylated TROP2; blocked ligand TROP2 (2.m7)
T4 construct: Fab; the heavy chain entry is VH-CH1; also called wild-type anti-TROP2 Fab (hRS7); TROP2 Fab

[10] = biological target: T5, TCE-37 (anti-CD3 scFv F104A; anti-TROP2 F108A); test: competition ELISA, TCE on captured CD3
T5 construct: scFv on the Fab heavy chain

[11] = biological target: T1, Human TROP2 ECD (31-274 AA), …; test: ELISA on immobilized TROP2; remark: listed apart in the source
[12] = biological target: T1, Human TROP2 ECD (31-274 AA), …; test: ELISA on immobilized TROP2; remark: listed apart in the source
[13] = biological target: T6, CD3 (biotinylated CD3 antigen) (human, UniProt P07766 23-126, limits assumed, biotinylated (site not stated)); test: ELISA: biotinylated CD3 captured on neutravidin plates, TCE titrated, HRP secondary antibody
T6 construct: also called CD3ε; human CD3

[14] = biological target: T6, CD3 (biotinylated CD3 antigen); test: ELISA, TCE on captured biotin-CD3
[15] = biological target: T7, Peptide-65 (cysteine pairing not given here; also: biotinylated, site not given here); test: ELISA, TCE on captured biotin-peptide
T7 construct: mask peptide for the CD3 scFv
T7 peptide: QGCGTIADPEPHCW

[16] = biological target: T8, Peptide-69 (cysteine pairing not given here; also: biotinylated, site not given here); test: ELISA, TCE on captured biotin-peptide
T8 construct: mask peptide for the CD3 scFv
T8 peptide: SECLVDLQSDPCYW

[17] = biological target: T9, Peptide-71 (cysteine pairing not given here; also: biotinylated, site not given here); test: ELISA, TCE on captured biotin-peptide
T9 construct: mask peptide for the CD3 scFv
T9 peptide: VDCGPDGDESILCY

[18] = biological target: T10, Peptide-74 (cysteine pairing not given here; also: biotinylated, site not given here); test: ELISA, TCE on captured biotin-peptide
T10 construct: mask peptide for the CD3 scFv
T10 peptide: ASQCLGPEWEVCPY

B1: TCE-5 (bispecific antibody)
light: not shown
heavy: QVQLQQSGSELKKPGASVKVSCKASGYTFTNYGMNWVKQAPGQGLKWMGWINTYTGEPTYTDDFKGRFAFSLDTSVSTAYLQISSLKADDTAVYFCARGGFGSSYWYFAVWGQGSLVTVSSASTKGPSVFPLAPSSKSTSGGTAALGCLVKDYFPEPVTVSWNSGALTSGVHTFPAVLQSSGLYSLSSVVTVPSSSLGTQTYICNVNHKPSNTKVDKKVEPKSC
EC50 [1]: 1.43 nM | EC50 [2]: 0.59 nM | EC50 [3]: 20.9 nM

B2: PC-8 (bispecific antibody)
light: GGVDFCGLYHWPICYQGGGGSGGLSGRSDAGSPLGLAGSGGSDIQLTQSPSSLSASVGDRVSITCKASQDVSIAVAWYQQKPGKAPKLLIYSASYRYTGVPDRFSGSGSGTDFTLTISSLQPEDFAVYYCQQHYITPLTFGAGTKVEIKRTVAAPSVFIFPPSDEQLKSGTASVVCLLNNFYPREAKVQWKVDNALQSGNSQESVTEQDSKDSTYSLSSTLTLSKADYEKHKVYACEVTHQGLSSPVTKSFNRGEC
heavy: not shown
notes: Masked polypeptide complex: anti-TROP2 D109A, anti-CD3 wt
H292 Cytotoxicity EC50 (pM) [4]: 14600 pM | HCT116 Cytotoxicity EC50 (pM) [4]: > 100000 pM | CyTROP2 HEK293 EC50 (pM) [5]: 3450 pM | EC50 [1]: 187 nM | EC50 [6]: 86 nM | EC50 [7]: 165 nM

B3: PC-30 (bispecific antibody)
light: GGVDFCGLYHWPICYQGGGGSGGLSGRSDAGSPLGLAGSGGSDIQLTQSPSSLSASVGDRVSITCKASQDVSIAVAWYQQKPGKAPKLLIYSASYRYTGVPDRFSGSGSGTDFTLTISSLQPEDFAVYYCQQHYITPLTFGAGTKVEIKRTVAAPSVFIFPPSDEQLKSGTASVVCLLNNFYPREAKVQWKVDNALQSGNSQESVTEQDSKDSTYSLSSTLTLSKADYEKHKVYACEVTHQGLSSPVTKSFNRGEC
heavy: not shown
notes: anti-TROP2 D109A
EC50 [7]: 151 nM

B4: PC-2 (bispecific antibody)
light: GGIDFCMLYNWPICAGGGGGSSGGSAAGLLAPPGGLSGRSDAGGGGSDIQLTQSPSSLSASVGDRVSITCKASQDVSIAVAWYQQKPGKAPKLLIYSASYRYTGVPDRFSGSGSGTDFTLTISSLQPEDFAVYYCQQHYITPLTFGAGTKVEIKRTVAAPSVFIFPPSDEQLKSGTASVVCLLNNFYPREAKVQWKVDNALQSGNSQESVTEQDSKDSTYSLSSTLTLSKADYEKHKVYACEVTHQGLSSPVTKSFNRGEC
heavy: not shown
notes: anti-TROP2 wt
EC50 [8]: 78.5 nM

B5: PC-3 (bispecific antibody)
light: GGVDFCKIYSWPVCHQGGGGSSGGSAAGLLAPPGGLSGRSDAGGGGSDIQLTQSPSSLSASVGDRVSITCKASQDVSIAVAWYQQKPGKAPKLLIYSASYRYTGVPDRFSGSGSGTDFTLTISSLQPEDFAVYYCQQHYITPLTFGAGTKVEIKRTVAAPSVFIFPPSDEQLKSGTASVVCLLNNFYPREAKVQWKVDNALQSGNSQESVTEQDSKDSTYSLSSTLTLSKADYEKHKVYACEVTHQGLSSPVTKSFNRGEC
heavy: not shown
notes: anti-TROP2 wt
EC50 [8]: 64.6 nM

LDFCKLYQWPVCFT [Peptide-15]
binding result [9]: binds

YLCGPDTDETLACY (cysteine pairing not given here; also: biotinylated, site not given here, mask peptide for the CD3 scFv) [Peptide-77]
IC50 [10]: 8870 nM

VDFCALYNWPVCET [Peptide-11]
binding result [9]: binds

B6: TCE-1 (TROP2 T cell engager, anti-CD3 scFv wt, anti-TROP2 wt) (bispecific antibody)
light: DIQLTQSPSSLSASVGDRVSITCKASQDVSIAVAWYQQKPGKAPKLLIYSASYRYTGVPDRFSGSGSGTDFTLTISSLQPEDFAVYYCQQHYITPLTFGAGTKVEIKRTVAAPSVFIFPPSDEQLKSGTASVVCLLNNFYPREAKVQWKVDNALQSGNSQESVTEQDSKDSTYSLSSTLTLSKADYEKHKVYACEVTHQGLSSPVTKSFNRGEC
heavy: not shown
notes: Anti-CD3 scFv joined to the N-terminus of the anti-TROP2 Fab heavy chain; the heavy entry holds scFv, linker and Fab heavy chain; also called TCE-1 (wt)
EC50 [11]: 0.07 nM | EC50 [3]: 1.29 nM | EC50 [12]: 0.06 nM

B7: TCE-8 (anti-CD3 scFv wt; anti-TROP2 D109A) (bispecific antibody)
light: DIQLTQSPSSLSASVGDRVSITCKASQDVSIAVAWYQQKPGKAPKLLIYSASYRYTGVPDRFSGSGSGTDFTLTISSLQPEDFAVYYCQQHYITPLTFGAGTKVEIKRTVAAPSVFIFPPSDEQLKSGTASVVCLLNNFYPREAKVQWKVDNALQSGNSQESVTEQDSKDSTYSLSSTLTLSKADYEKHKVYACEVTHQGLSSPVTKSFNRGEC
heavy: not shown
notes: scFv on the Fab heavy chain
EC50 [1]: 0.57 nM | EC50 [6]: 0.2 nM | EC50 [7]: 0.16 nM

B8: TCE-35 (anti-CD3 scFv N30Q, I109V, G172A, V231A; anti-TROP2 wt) (bispecific antibody)
light: DIQLTQSPSSLSASVGDRVSITCKASQDVSIAVAWYQQKPGKAPKLLIYSASYRYTGVPDRFSGSGSGTDFTLTISSLQPEDFAVYYCQQHYITPLTFGAGTKVEIKRTVAAPSVFIFPPSDEQLKSGTASVVCLLNNFYPREAKVQWKVDNALQSGNSQESVTEQDSKDSTYSLSSTLTLSKADYEKHKVYACEVTHQGLSSPVTKSFNRGEC
heavy: not shown
notes: scFv on the Fab heavy chain
EC50 [13]: 0.171 nM

B9: TCE-13 (anti-CD3 scFv N103A; anti-TROP2 wt) (bispecific antibody)
light: DIQLTQSPSSLSASVGDRVSITCKASQDVSIAVAWYQQKPGKAPKLLIYSASYRYTGVPDRFSGSGSGTDFTLTISSLQPEDFAVYYCQQHYITPLTFGAGTKVEIKRTVAAPSVFIFPPSDEQLKSGTASVVCLLNNFYPREAKVQWKVDNALQSGNSQESVTEQDSKDSTYSLSSTLTLSKADYEKHKVYACEVTHQGLSSPVTKSFNRGEC
heavy: not shown
notes: scFv on the Fab heavy chain; also called TCE-13 (N103A)
EC50 [14]: 1.69 nM | EC50 [15]: 2.71 nM | EC50 [16]: 1.69 nM | EC50 [17]: 0.34 nM | EC50 [18]: 0.36 nM

VDFCYLYNWPVCSK [Peptide-9]
binding result [9]: binds

B10: PC-4 (bispecific antibody)
light: not shown
heavy: GGIDFCMLYNWPICAGGGGGSSGGSAAGLLAPPGGLSGRSDAGGGGSQVQLQQSGSELKKPGASVKVSCKASGYTFTNYGMNWVKQAPGQGLKWMGWINTYTGEPTYTDDFKGRFAFSLDTSVSTAYLQISSLKADDTAVYFCARGGFGSSYWYFDVWGQGSLVTVSSASTKGPSVFPLAPSSKSTSGGTAALGCLVKDYFPEPVTVSWNSGALTSGVHTFPAVLQSSGLYSLSSVVTVPSSSLGTQTYICNVNHKPSNTKVDKKVEPKSC
notes: anti-TROP2 wt
EC50 [8]: 32.8 nM
